{"source": "patent US20040048314A1", "about": "“Novel physiologically active peptide and use thereof” (priority 2001, published 2004)", "molecules": {"B1": {"name": "MIT1 (protein)", "chain": "AVITGACERDLQCGKGTCCAVSLWIKSVRVCTPVGTSGEDCHPASHKIPFSGQRMHHTCPCAPNLACVQTSPKKFKCLSK"}, "B2": {"name": "human type Bv8: Human type Bv8 mature peptide (81 amino acid residues, SEQ ID NO: 19) produced in Escherichia coli, … EXAMPLE 1 (protein)", "chain": "AVITGACDKDSQCGGGMCCAVSIWVKSIRICTPMGKLGDSCHPLTRKVPFFGRRMHHTCPCLPGLACLRTSFNRFICLAQ"}, "B3": {"name": "human type Bv8 peptide: Human type Bv8 purified from CHO cell culture supernatant (EXAMPLE 3); C-terminal Lys-deficient mature peptide, SEQ ID NO: 22 (protein)", "chain": "B2 chain", "modifications": "Human"}}, "key": {"[1]": {"biological_target": "human type I5E receptor protein (human) (UniProt Q8NFJ6)", "sequence (Q8NFJ6 whole entry)": "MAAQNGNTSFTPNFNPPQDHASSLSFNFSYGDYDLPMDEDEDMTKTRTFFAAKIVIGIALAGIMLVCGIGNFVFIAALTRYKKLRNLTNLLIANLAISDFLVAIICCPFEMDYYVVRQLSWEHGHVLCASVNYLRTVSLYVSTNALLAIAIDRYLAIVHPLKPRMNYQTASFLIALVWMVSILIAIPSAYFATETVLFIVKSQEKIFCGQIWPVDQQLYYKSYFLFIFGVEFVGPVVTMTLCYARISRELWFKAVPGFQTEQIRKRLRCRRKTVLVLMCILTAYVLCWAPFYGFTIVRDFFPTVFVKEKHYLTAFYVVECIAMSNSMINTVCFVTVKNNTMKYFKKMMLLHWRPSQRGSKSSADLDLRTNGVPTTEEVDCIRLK", "experiment": "cell-based or functional assay", "conditions": "scale: times lower level than human type Bv8 peptide"}, "I5E receptor": {"biological_target": "T1, I5E receptor (Homo sapiens, UniProt Q8NFJ6)", "T1 construct": "expressed in transfected cells; host or cells: CHO/dhfr- cells, clone No. 4 (I5E-4 cells), vector pAKKO1.11", "T1 sequence (Q8NFJ6 whole entry)": "as above", "experiment": "Assay for the I5E receptor activating activity (intracellular Ca ion level increasing activity using FLIPR)", "format": "cell-based", "conditions": "I5E receptor expression CHO cells", "text": "Human I5E receptor cDNA (SEQ ID NO: 6) was cloned by PCR publicly known and incorporated into pAKKO1.11 expression vector. The expression vector was transfected to CHO/dhfr^− cells (American Type Culture Collection) by the method described in (2-1). About 20 colonies of the transfected CHO cells, which grew in 8 to 10 days after the initiation of culture, were selected. The selected cells were inoculated on a 96-well plate in 3×10^4 cells/well, and the reactivity on snake venom MIT1 (SEQ ID NO: 21) was examined by the test method described in (2-3) described hereinafter. No. 4 clone of the 15E-expressing CHO cells showing a good reactivity was selected (hereinafter abbreviated as 15E-4 cells).\nThe ZAQC-B1 obtained in (2-1) above and the 15E-4 cells obtained in (2-2) above were suspended in a medium (10% d FBS-DMEM), respectively, in 15×10^4 cells/ml and an aliquot of 200 μl was inoculated on a 96-well plate for FLIPR (Black plate clear bottom, Coster, Inc.) using a dispenser (3.0×10^4 cells/200 μl/well). After culturing overnight in a 5% CO2 incubator at 37° C., it was provided for use (hereinafter which was made a cell plate). […] By assaying a change in fluorescence intensity with passage of time, the intracellular Ca ion level increasing activity was measured. […]"}, "guinea pig ileum": {"tested_on": "guinea pig ileum", "experiment": "Experiment on contraction using specimen removed from guinea pig ileum", "conditions": "for EC50: guinea pig ileum specimen, contraction induced by 1 μM acetylcholine taken as 100%, accumulative administration, read-out: EC50 of contraction response calculated from the dose-response curve", "procedure": "Guinea pigs (std: Hartley, 7-8 weeks old, male, weighing about 450 g) weres bled to death by cutting the carotid artery and laparotomized to remove the ileum. The ileum was placed on a glass Petri dish charged with Tyrode solution (composition: 138 mM NaCl, 2.7 mM KCl, 1.8 mM CaCl2, 0.5 mM MgCl2, 1.1 mM NaH2PO4, 11.9 mM NaHCO3 and 5.6 mM glucose), which was bubbled with 95% O2-5% CO2 gas. After connective tissues or fat pieces adhered to the ileum were removed with scissors for surgery and tweezers, the ileum was cut into a size of about 1.5 cm long, which was used as specimen. The specimen was suspended in an organ bath (20 ml) filled with the Tyrode solution maintained at 37° C. and a load of 0.5 g was applied over 30 minutes or longer to stabilize the specimen. Contraction response of the ileum specimen was measured using AMPLIFIER CASE 7747 of NEC Sanei. After determination of the maximum contraction by administration of 1 μM acetylcholine, purified human type Bv8 peptide obtained by the method of REFERENCE EXAMPLE 1 with a modification or snake venom MIT1 was accumulatively administered to assay the contraction response. For dilution of human type Bv8 and MIT1, physiological saline containing 0.05% bovine serum albumin was employed.\nThe contraction response induced by human type Bv8 and MIT1 was shown by percentage, taking the contraction induced by 1 μM acetylcholine as 100%."}, "[2]": {"tested_on": "ileum, distal colon, proximal colon", "conditions": "cited from earlier work"}, "ZAQ receptor": {"biological_target": "T2, ZAQ receptor (Homo sapiens, UniProt Q8TCW9)", "T2 construct": "expressed in transfected cells; host or cells: CHO/dhfr- cells, clone ZAQC-B1 (plasmid pAK-ZAQC)", "T2 sequence (Q8TCW9 whole entry)": "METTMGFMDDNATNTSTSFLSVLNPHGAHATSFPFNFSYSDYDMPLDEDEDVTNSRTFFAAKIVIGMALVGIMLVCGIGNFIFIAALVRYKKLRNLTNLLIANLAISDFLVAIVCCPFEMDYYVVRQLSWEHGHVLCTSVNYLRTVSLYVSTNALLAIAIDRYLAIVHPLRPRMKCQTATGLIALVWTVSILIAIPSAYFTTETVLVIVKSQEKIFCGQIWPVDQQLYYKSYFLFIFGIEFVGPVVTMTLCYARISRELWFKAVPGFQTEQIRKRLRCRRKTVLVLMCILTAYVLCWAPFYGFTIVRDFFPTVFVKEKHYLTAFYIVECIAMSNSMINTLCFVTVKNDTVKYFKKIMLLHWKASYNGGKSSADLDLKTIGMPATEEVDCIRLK", "experiment": "Assay for the ZAQ receptor activating activity (intracellular Ca ion level increasing activity using FLIPR)", "format": "cell-based", "procedure": "The ZAQC-B1 obtained in (2-1) above and the 15E-4 cells obtained in (2-2) above were suspended in a medium (10% d FBS-DMEM), respectively, in 15×10^4 cells/ml and an aliquot of 200 μl was inoculated on a 96-well plate for FLIPR (Black plate clear bottom, Coster, Inc.) using a dispenser (3.0×10^4 cells/200 μl/well). After culturing overnight in a 5% CO2 incubator at 37° C., it was provided for use (hereinafter which was made a cell plate). Twenty milliliters of H/HBSS (9.8 g of Nissui Hanks 2 (Nissui Seiyaku Co., Ltd.), 0.35 g of sodium hydrogencarbonate and 4.77 g of HEPES; the pH was adjusted to 7.4 with 6 M sodium hydroxide solution followed by filter sterilization), 200 μl of 250 mM Probenecid and 200 μl of fetal bovine serum (FBS) were mixed. Also, 2 vials (50 μg) of Fluo 3-AM (Dojin Kagaku Kenkyusho) were dissolved in 40 μl of dimethylsulfoxide and 40 μl of 20% Pluronic acid (Molecular Probes Co., Ltd.). The solution was added to H/HBSS-Probenecid-FBS described above. After thoroughly mixing them, an aliquot of 100 μl was added to the medium-removed cell plate using an 8-channel pipette, followed by incubation in a 5% CO2 incubator at 37° C. for an hour (dye loading). […] By assaying a change in fluorescence intensity with passage of time, the intracellular Ca ion level increasing activity was measured. […]"}, "MAP kinase": {"tested_on": "MAP kinase", "conditions": "cited from earlier work"}, "PI-3 kinase": {"tested_on": "PI-3 kinase", "conditions": "cited from earlier work"}}, "data": [{"molecule": "snake venom Mamba Intestinal Toxin 1 (from UniProt P25687 1-80) (ligand)", "values": [{"measurement": "I5E receptor activating activity (intracellular calcium level, FLIPR)", "setting": "[1]", "value": 10}]}, {"molecule": "B1", "values": [{"measurement": "level from which I5E receptor activating activity is exhibited, lower than that of human type Bv8 peptide", "setting": "I5E receptor; relative to human type Bv8 peptide", "value": "about 10 times"}, {"measurement": "EC50", "setting": "guinea pig ileum", "value": 0.4, "unit": "nM"}, {"measurement": "degree of contraction/relaxation", "setting": "[2]; compared with potassium chloride", "value": "as potent as comparable to 40 mM potassium chloride"}, {"measurement": "contraction or relaxation of intestinal tract", "setting": "[2]; ileum, distal colon, proximal colon", "value": "induced contraction in the ileum or distal colon, or relaxation in the proximal colon"}]}, {"molecule": "B2", "values": [{"measurement": "intracellular Ca ion level increasing activity using FLIPR, compared with CHO cell-derived recombinant preparation", "setting": "ZAQ receptor; method of EXAMPLE 2 (2-3), receptor cell line not specified", "value": "equivalent to that of the CHO cell-derived recombinant preparation"}, {"measurement": "intestinal tract contractile activity", "setting": "guinea pig ileum; as described in EXAMPLES", "value": "has an intestinal tract contractile activity"}, {"measurement": "EC50", "setting": "guinea pig ileum", "value": 0.57, "unit": "nM"}, {"measurement": "MAP kinase activation", "setting": "MAP kinase", "value": "activates"}, {"measurement": "PI-3 kinase activation", "setting": "PI-3 kinase", "value": "activates"}]}, {"molecule": "B3", "values": [{"measurement": "I5E receptor activating activity (intracellular calcium level)", "setting": "I5E receptor; FLIPR, FIG. 10", "value": "induced the intracellular calcium level concentration-dependently"}, {"measurement": "ZAQ receptor activating activity (intracellular calcium level)", "setting": "ZAQ receptor; ZAQ receptor expression CHO cells, FLIPR, FIG. 9", "value": "induced the intracellular calcium level concentration-dependently"}]}]}
